{
  "source": "the nanobody polyreactivity screen of Harvey et al. (2022)",
  "data": [
    {"test": "yeast display, Sf9 membrane polyspecificity reagent, FACS + sequencing; frameworks hold sequencing errors", "how_it_was_run": "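Nanobodies came from a synthetic yeast display library in Saccharomyces cerevisiae BJ5465, induced with galactose for 36–48 hours and stained for 1 hour at 4 °C with 10% biotinylated, detergent-solubilized Sf9 membrane reagent. Cells were enriched on streptavidin microbeads and then FACS-sorted, with low and high (top ~1%) gates set on anti-HA fluorescence for expression and streptavidin fluorescence for reagent binding. Each polyreactivity label reflects the gate a clone came from. Genes were amplified by colony PCR, sequenced by MiSeq 2 × 250 and filtered by CDR length.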", "values": [
      {"sequence": "QVQLVESGGGLVQAGGSLRLSCAASGLTFVANAMGWYRQAPGKERELVAAIDYGGGHTYYADSVKGRFTISRDYAKNTVYLQMNSLKPEDTAVYYCAVGLPHGGRRLYGSWYRFDYWGQGTQVTVSS", "polyreactivity (PSR sort gate)": "low polyreactivity"},
      {"sequence": "QVQLVESGGGLVQAGGSLRLSCAASGSIFVYNAMGWYRQAPGKERELVAAISQRGGSTYYADSVKGRFTISRDYSKNTVYLQMNSLKPEDTAVYYCAAGPGDSGDDYWGQGTQVTVSS", "polyreactivity (PSR sort gate)": "low polyreactivity"},
      {"sequence": "QVQLVESGGGLLLAGGSLRLSCAASGNIFRANTRGWYRQAPGKERELVASIRRSGGSTYYADSVKGRFTISRDNAKNTVYLQMNSLKPEDTAVYYCAAKSRPPYTDNYYWGQGTQVTVSS", "polyreactivity (PSR sort gate)": "high polyreactivity"},
      {"sequence": "QVQLVESGGGLVQAGGSLRLSCAASGRIFEWNAMGWYRQAPGKERELVAAISWSGGSTYYADSVKGRFTISRDNAKNTVYLQMNSLKPEDTAVYYCAALTYRWSARDYWGQGTQVTVSS", "polyreactivity (PSR sort gate)": "high polyreactivity"},
      {"sequence": "QVQLVESGGGLVQAGGSLRLSCAASGRIFGTYAMGWYRQAPGKEREFVAAITSSGGNTYYADSVKGRFTISRDNAKNTVYLQMNSLKPEDTGVYYCNARPLYRHYITRFDYWGQGTQVTVSS", "polyreactivity (PSR sort gate)": "high polyreactivity"},
      {"sequence": "QVQLVESGGGLVQAGGSLRLSCADSGITIVWYAIGWYRQAPGKERELVAAISRGGGSTYYADSVKGRFTISRDNAKNTVYLQMNSLKPEDTAVYYCAASGGYTFDWLEFDYWGQGTQVTVSS", "polyreactivity (PSR sort gate)": "low polyreactivity"},
      {"sequence": "QVQLVESGGGLVQAGGSLRLSCAASGSTFTYNTLVWYRQAPGKERELVAAISWGGGGTYYADSVKGRFTISRDNAKNTVYLQMNSLKPEDTAVYYCNADPWWDYGTFDYWGQGTQVTVSS", "polyreactivity (PSR sort gate)": "low polyreactivity"},
      {"sequence": "QVQLVESGGGLVQAGRSLRLSCAASGFTFIRYDMGWYRQALGKETELVATITRRGGSTYYADSVKGRFTISRDNAKNTVYLQMNSLKPEDTAVYYCNRDYVTYGKYYYWGQGTQVTVSS", "polyreactivity (PSR sort gate)": "high polyreactivity"},
      {"sequence": "QVQLVETGGGLVQASGSLRLSSAASGRIFTRYAMGWYRQAHGKERELVPAITRGGSTYYADSVKGRFTISRDNAKNTVYLQMNSLKPEDTAVYYCAADWFGISVVRDPFDHWGQGTQVTVSS", "polyreactivity (PSR sort gate)": "high polyreactivity"},
      {"sequence": "QVQLVESGGGLVQAGGSLRLSCAASGSTLVKYAMGWYRQAPGKERELVAAISWSGGRTYYADSVKGRFTISRDNAKNTVYLQMNSLKPEDTAVYYCAARSTRFYTPGYYYWGQGTQVTVSS", "polyreactivity (PSR sort gate)": "high polyreactivity"},
      {"sequence": "QVQLVESGGGLVQAGGSLRLSCAASGFDGYAMGWYRQAPGKERELVAAISWSGSRTYYADSVKGRFTISRDNAKNTVYLQMNSLKPEDTAVYYCAADDVGRGSTPYDYWGQGTQVTVSW", "polyreactivity (PSR sort gate)": "high polyreactivity"},
      {"sequence": "QDQLVESGGGLVQAGGSLSLSCAASGSTFLTNAMGWYRQAPGKERELVAAISRRGGNTYYADSVKGRFTISRDNAKNTVYLQMNSMNPEDTAVYYCNAVTPTTLGDYWGQGTQVTVSS", "polyreactivity (PSR sort gate)": "high polyreactivity"},
      {"sequence": "QVQLVESGGGLVQAGGSLRLSCAASGLIFYLYAMGWYRQAPGKEREFVAGINWSGGNTYADSVKGRFTISRDNAKNTVYLQLNSLKPEDTAVYYCAADSLIYTHPYQYDYWGQGTQVTVSS", "polyreactivity (PSR sort gate)": "low polyreactivity"},
      {"sequence": "QVQLVESGGGLVQAGGSLRLSCAASGFTFGRYVMGWYRQAPGKGRELVAAITSSGSRTYYADSVKGRFTISRDNAKNTVYLQMNSLKPEHTAVYYCAARVYWTPVYYWGQGTQVTVSS", "polyreactivity (PSR sort gate)": "high polyreactivity"},
      {"sequence": "QVQLVESGGGLVQAGGSLRLSCAASRRTFGYYAMGWYRKAPGKEREMVAAIRSTGSTNYADSVKGRFTISRDNAKNSVYLQMNCLKPEDTAVYYCNAKRRFRYDYWGLGTQVTVSS", "polyreactivity (PSR sort gate)": "low polyreactivity"},
      {"sequence": "QVQLVESGGGLVQAGGSLRLSCAASGSIFTGYAMGWYRQARGKESELVAAIDDSGDSTYYADSVKVRFTISRDNATNTVYLQMNSLKPEDTAVYYSKAEYRVNKEYDYWGQGTQVTVSS", "polyreactivity (PSR sort gate)": "low polyreactivity"},
      {"sequence": "QVQLVESGGGLVQAGGSLRLSCAASGSNIDGYAMGRYRQAPGKEREFLAAISFSSASTYYADSVKGRFTISRDNAKNSVYLQMNSLKPEDTAVYYCNADFFESGGSIEYDSSGQGTQVTVSS", "polyreactivity (PSR sort gate)": "low polyreactivity"},
      {"sequence": "QVQLVESGGCLVQAGGSLRLSCAASGLIFAEYAMGWYRQAPGKERELVARITSGGSTDYADSVKGRFTISRDNAKNTVFLQMNSLKPEDTAVYYCAAAYAYWGQGTQVTVSS", "polyreactivity (PSR sort gate)": "low polyreactivity"},
      {"sequence": "QVQLVESGGGLVQAGGSLRLSCAASGSTFYIYAMGWYRQAPGKERELVAAITWSGSRTYYADSVKGRFTISRDNAKNTVYLQMNSLKPEDTAVYYCAARSYRNNRYKEDYWGQGTQVTVSS", "polyreactivity (PSR sort gate)": "high polyreactivity"},
      {"sequence": "QVQLVESGGGLVQAGGSLRLSCVASGRTFFRYAMGWYRQAPGKERELVAVITRGGSTYYADSVKGRFTISRDNAKNTVYLQMNSLKPEDTAVYYCNADGRVQRKYDYWGQGTQVTVSS", "polyreactivity (PSR sort gate)": "high polyreactivity"},
      {"sequence": "QVQLVESGGGLVQAGGSLRLSCAASGLIFYDNMGWYRQAPGKERELVAAISSSGGSTSYADSVKGRFTISRDNAKNTVYLQMNSLKPVDTAVYYCAADSYPAYLGFVGFDYWGQGTQVTVSS", "polyreactivity (PSR sort gate)": "low polyreactivity"},
      {"sequence": "QVQLVESGGVLVQGGGSLRLSCAASGSIFPFYALGWYRQAPGKERELVATNSWSGGRTYYADSVKGRFTKSRDNAKTNVYLQINILIPEDTAVYYCAAGSYHYPNAYYYWGQGTQLTVSS", "polyreactivity (PSR sort gate)": "high polyreactivity"},
      {"sequence": "QVQLVESGGGLVLAGGSLRLTCAASGRTFSQYTMGWYRQAPGKERELVAAISVSGTSTYYADSVKGRFTISRDNAKNTVYLQMNSLKPEDTAVYYCAAGYQRITRFAHRKYGYWGQGTQVTVSS", "polyreactivity (PSR sort gate)": "high polyreactivity"},
      {"sequence": "QVQLVESGGGLVQAGGSLRLSCAASGSIFASYVMGWSRQAPGKERELVAAISYSDGRTYYADSVKGRFTISRDNAKNTVYLQMNSLKPEDTAVYYCAADRHARLVIGYRRLRYEYWGQGTQVTVSS", "polyreactivity (PSR sort gate)": "low polyreactivity"},
      {"sequence": "QVQLVESGGGLVQAGGSLRLSCAASGSTFQYYAMGWYRQAPGKERELVAAISDGTNTNYADSVKGRFTISRDNAKNTVYLQMNSLKPEDTAVYYCAARFYSIVKYVGIGTDEYDYWGQGTQVTVSS", "polyreactivity (PSR sort gate)": "low polyreactivity"},
      {"sequence": "QVHLVESGGGLVQAGGSLRLSCAASGFTFLVYAMRWYRKAPGKEREFVAAMNWSGDRTYYADSVKGLFTISREYAKNTVYLQMNSVKTEDTAVYYCAAVDYVYPQAYGYWGQGTQVTVSS", "polyreactivity (PSR sort gate)": "low polyreactivity"},
      {"sequence": "HVQLVESGGGLVQAGGSLRLSCAASGSIFDSYVMGWYRQAPGTERELVAAITYSGGSTYADSVKGRFTISRDNAKNTVYLQMNSLKPEDTAVYYCAAASYFYLYLLEDYWGQGTQVTVSS", "polyreactivity (PSR sort gate)": "low polyreactivity"},
      {"sequence": "QVQLVESGGGLVQAGGSLRLSCAASGYTFRAYAMGWYRQAPGKEREYVAAISRSGGSTYYADSVKGRFTISRDNAKNTVYLQMNSLKPEDTAVYYCNKVYRWAGYDYWGQGSQVTVSS", "polyreactivity (PSR sort gate)": "high polyreactivity"},
      {"sequence": "QVQLVESGGGLVQAGGSLRLSCAASGIIFCRYAMGWYRQAPGKERELVATITWRGGSTYYADSVKGRFTISRDNAKNTVYLQMNSLKPEDTAVYYCAADTRQSRSFRARDYWGQGTQVTVSS", "polyreactivity (PSR sort gate)": "low polyreactivity"},
      {"sequence": "QVQLVESGGGLFHAGGSLRLICAASGTTFKYYAMGSYRQAPAIEREFVAAISTRTGNTYYADSVKGRFTISRDNAKNTVYLQMNSLKPEDTAVYYCAARPRQGRGYDFYYWGQGTQVTVSS", "polyreactivity (PSR sort gate)": "high polyreactivity"},
      {"sequence": "QVQLVESGGGLVQAGGSLRLTCAASGRTFRIYAMGWYRQAPAKERELVAAIRWSGGTTYYADSVKGRFTISRDNTNNSVYLQMNSLKPEDTAVYYCNKARLGWSYRQDDYWGQGTQVTVSS", "polyreactivity (PSR sort gate)": "high polyreactivity"},
      {"sequence": "QVQLVESGGGLVQAGGSLRLSCAASGGTFYTNVMGGYTQAPGKERELVAAITRSGGSTHYADSVKGRFTISRDNAKNTFYLQMNSLKPEDTEVYYCALGSPYYDGMDYWGQGTQVTVSS", "polyreactivity (PSR sort gate)": "low polyreactivity"},
      {"sequence": "QVQLVESGGGLVQAGGSLRLSCAASGFNFEENAMGWYRQAPGKERELVAAINWSGGNTYYADSVKGRFTISRDNAKNTVYLQMNSLKPEDTAVYYCAAEYRSWSWRMDYWGQGTQVTVSS", "polyreactivity (PSR sort gate)": "high polyreactivity"},
      {"sequence": "QVQLVESGGGLVQAGGSLSLSCAASGSIFLRNAMGWYRPAPGKERELVAAITRVGSTYADSVKGRFTISRDNAKNTVYLQMNSLKPEDTAVYYCAAVSGVRSGPWRYDYWGQGTQVTVSS", "polyreactivity (PSR sort gate)": "high polyreactivity"},
      {"sequence": "QVQLVESGGGLVQAGGSLRLSCAASGSTFAGYVMGWSRQAPGKERELVAAISRSGGSTYYADSVKGRFTISRDNAKNTVYLQMNSLKPEDTAVYYCNARYNTQRYRFLVQGDYWGQGTQVTVSS", "polyreactivity (PSR sort gate)": "high polyreactivity"},
      {"sequence": "QVQLVESGGGLVQAGGSLRLSCAGSGSTILYYVMGWYRQAPGKARELVAAITGTGGRTYYADSVKGRFTISRDNAKNTVYLQMNSLKPEDTAVYYCAADGKFEYDYWGQGTQVTVSS", "polyreactivity (PSR sort gate)": "low polyreactivity"},
      {"sequence": "QVQLVESGGGLVQAGGSLRISCAASGFIFRSYAMGWYRQAPGKERELVAAISRSGGSTYYADSVKGRFTISRDNAKNTVYLQMNSLKPEDTAVYYCATDGGRSTARGYGHWGQGTQVTVSS", "polyreactivity (PSR sort gate)": "high polyreactivity"},
      {"sequence": "QVQLVESGGGLVQAGGSLRLSCAASGFIIGDYAMGWYRQAPGTERELVAAIFSVGSTYYADSVKGRFTISRDNAKNTVYLQMNSLKPEDTAVYYCAARFARYDWSMYYWGQGTQVTVSS", "polyreactivity (PSR sort gate)": "low polyreactivity"},
      {"sequence": "QVQLVESGGGLVQAGGSLRLSCAASGRIFYYNAMGWYRQAPGKEREFVAAISSGGGSTYYADSVKGRFTISRDNAKNTVYLQMNSLKPEDTAVYYCAADGYYYDYYYYWGDYGYWGQGTQVTVSS", "polyreactivity (PSR sort gate)": "high polyreactivity"},
      {"sequence": "QVQLVESGGGLVQAGGSLRLSCAASGSIFGLNAMGWYRPEPGQESALVAAISYSGGTTYYADSVKGRFTISRDNAKNSVYLQMNSLKPEDTAVYYCATRARYVGGYKYNYWGQGTQVTVSS", "polyreactivity (PSR sort gate)": "high polyreactivity"},
      {"sequence": "QVQLVESGGGLVQAGGSLRLSCAASGRTFYRYAMGWYRQAPGKERELVAVITSGSRTKYADSVKGRFTISRDNAKNTVYLQMNSLKPEDTAVYYCNAYGVRYRQAFVRYNYWGQGTQVTVSS", "polyreactivity (PSR sort gate)": "high polyreactivity"},
      {"sequence": "QVQLVESGGGLVQAGGSLRLSCAASGIIFSQYAMGWYRQAPGKERELVAGITRSGGSTYYADSVKGRFTISRDNAKNTVYLQMNSLKPEDTAVYYCAAVQRYEYGYWGQGTQVTVSS", "polyreactivity (PSR sort gate)": "high polyreactivity"},
      {"sequence": "QVQLVESGGGLVQAGGSLRLSCAASGSIISYYAMGWYRQAPGKERELVAAISRGGGRTYYADSVKGRFTISRDNAKNTVYLQMNSLKPEDTAVYYCAVTPVRFASGGAWMDYWGQGTQVTVSS", "polyreactivity (PSR sort gate)": "high polyreactivity"}
    ]}
  ]
}
